Data: paper PMC3913039

Biological target: recombinant 3x-FLAG-tagged human Sec61α, wild type (human) (UniProt P61619)
Assay: co-IP; Sf21 microsomes with FLAG-Sec61α and Sec61γ solubilised with 1% Deoxy BigChap, anti-FLAG immunoprecipitation, immunoblot beside canine microsomes

stoichiometry N: 1
Substance: recombinant untagged human Sec61γ (from UniProt P60059 1-68) (natural protein; other documents disagree on this pair)
